Test results reported in patent US20240124607A1 (Merck Sharp & Dohme, published 2024).
Changes are numbered by the printed parent chain.

Experiments:
[1] = target: T1, Human CEACAM5 (K398) (human, UniProt P06731 35-685, limits assumed); test: SPR, 37C, pH 7.4
T1 construct: also called K398 allele
T1 sequence: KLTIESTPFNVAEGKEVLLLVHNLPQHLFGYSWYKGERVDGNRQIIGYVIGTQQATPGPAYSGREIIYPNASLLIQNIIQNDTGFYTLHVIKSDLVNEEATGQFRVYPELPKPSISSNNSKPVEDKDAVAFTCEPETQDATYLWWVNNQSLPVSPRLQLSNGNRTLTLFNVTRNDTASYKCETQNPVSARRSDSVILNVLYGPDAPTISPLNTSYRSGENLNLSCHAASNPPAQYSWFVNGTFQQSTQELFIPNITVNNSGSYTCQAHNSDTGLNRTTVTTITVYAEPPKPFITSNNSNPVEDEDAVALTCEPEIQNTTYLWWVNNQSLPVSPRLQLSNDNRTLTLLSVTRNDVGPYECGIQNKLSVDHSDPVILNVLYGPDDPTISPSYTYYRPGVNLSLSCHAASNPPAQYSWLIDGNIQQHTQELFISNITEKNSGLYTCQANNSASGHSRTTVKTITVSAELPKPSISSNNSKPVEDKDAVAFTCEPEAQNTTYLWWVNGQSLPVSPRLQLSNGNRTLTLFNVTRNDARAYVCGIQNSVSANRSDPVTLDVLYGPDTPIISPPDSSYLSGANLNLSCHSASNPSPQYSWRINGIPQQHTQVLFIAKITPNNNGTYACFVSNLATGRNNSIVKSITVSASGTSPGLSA

[2] = target: T2, Human CEACAM5 V83A (human, UniProt P06731 35-685, limits assumed); test: SPR, 37C, pH 7.4
T2 sequence: T1 sequence with V49A, K364E

[3] = target: T3, Human CEACAM5 I113T (human, UniProt P06731 35-685, limits assumed); test: SPR, 37C, pH 7.4
T3 sequence: T1 sequence with I79T, K364E

[4] = target: T4, Human CEACAM5 (E398) (human, UniProt P06731 35-685, limits assumed); test: SPR, 37C, pH 7.4
T4 construct: also called hCEACAM5
T4 sequence: T1 sequence with K364E

[5] = target: T5, human CEACAM5 on cells (human, UniProt P06731 35-685); test: cell-based or functional assay
T5 sequence: T1 sequence with K364E

B1: AB0466 F3' CEACAM5 TriNKET (bispecific antibody, human IgG1, kappa)
chain: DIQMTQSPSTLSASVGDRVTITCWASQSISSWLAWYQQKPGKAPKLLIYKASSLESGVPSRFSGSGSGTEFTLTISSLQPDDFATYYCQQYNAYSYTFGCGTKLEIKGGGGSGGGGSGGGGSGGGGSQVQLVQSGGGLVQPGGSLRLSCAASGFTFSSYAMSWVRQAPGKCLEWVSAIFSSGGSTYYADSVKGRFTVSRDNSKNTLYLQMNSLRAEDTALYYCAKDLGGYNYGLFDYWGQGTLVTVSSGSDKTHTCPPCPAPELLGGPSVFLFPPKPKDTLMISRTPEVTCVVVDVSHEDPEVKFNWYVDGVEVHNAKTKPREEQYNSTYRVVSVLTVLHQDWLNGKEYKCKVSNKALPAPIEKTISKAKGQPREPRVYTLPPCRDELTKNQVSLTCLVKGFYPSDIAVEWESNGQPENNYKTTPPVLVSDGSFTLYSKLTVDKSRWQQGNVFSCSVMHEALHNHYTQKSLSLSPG
heavy: EVQLVESGGGLVKPGGSLRLSCAASGFTFSSYSMNWVRQAPGKGLEWVSSISSSSSYIYYADSVKGRFTISRDNAKNSLYLQMNSLRAEDTAVYYCARGAPIGAAAGWFDPWGQGTLVTVSSASTKGPSVFPLAPSSKSTSGGTAALGCLVKDYFPEPVTVSWNSGALTSGVHTFPAVLQSSGLYSLSSVVTVPSSSLGTQTYICNVNHKPSNTKVDKKVEPKSCDKTHTCPPCPAPELLGGPSVFLFPPKPKDTLMISRTPEVTCVVVDVSHEDPEVKFNWYVDGVEVHNAKTKPREEQYNSTYRVVSVLTVLHQDWLNGKEYKCKVSNKALPAPIEKTISKAKGQPREPQVCTLPPSRDELTENQVSLTCLVKGFYPSDIAVEWESNGQPENNYKTTPPVLDSDGSFFLYSWLTVDKSRWQQGNVFSCSVMHEALHNHYTQKSLSLSPG
light: DIQMTQSPSSVSASVGDRVTITCRASQGISSWLAWYQQKPGKAPKLLIYAASSLQSGVPSRFSGSGSGTDFTLTISSLQPEDFATYYCQQGVSFPRTFGGGTKVEIKRTVAAPSVFIFPPSDEQLKSGTASVVCLLNNFYPREAKVQWKVDNALQSGNSQESVTEQDSKDSTYSLSSTLTLSKADYEKHKVYACEVTHQGLSSPVTKSFNRGEC
Q: Which Kd [1] does the source give for B1 here?
A: Its Kd is 6.3 nM.

Q: And the kon [1]?
A: Its kon is 220000 M⁻¹ s⁻¹.

Q: What about the Kd [2] of the same binder?
A: Its Kd is 66 nM.

Q: And the kon [2]?
A: The kon was 140000 M⁻¹ s⁻¹.

Q: What about the Kd [3] of the same binder?
A: The Kd was 8.4 nM.

Q: And the kon [3]?
A: Its kon is 160000 M⁻¹ s⁻¹.

Q: And the Kd [4]?
A: Its Kd is 7.2 nM.

Q: And the kon [4]?
A: Its kon is 190000 M⁻¹ s⁻¹.

Q: What about the “EC50 (nM), NK lysis of HPAF-II (DELFIA)” value [5] of the same binder?
A: The value was 0.23 nM.

Q: What about the “EC50 (nM), NK lysis of LS-174T (DELFIA)” value [5] of the same binder?
A: Its value is 0.46 nM.

Q: What about the “EC50 (nM), NK lysis of SK-CO-1 (DELFIA)” value [5] of the same binder?
A: Its value is 9.07 nM.

Q: And the “EC50 (nM), NK lysis of ZR-75-30 (DELFIA)” value [5]?
A: The value was 0.8 nM.

Q: What about the “Max Killing (%), HPAF-II” value [5] of the same binder?
A: Its value is 16.5%.

Q: What about the “Max Killing (%), LS-174T” value [5] of the same binder?
A: Its value is 20.5%.

Q: What about the “Max Killing (%), SK-CO-1” value [5] of the same binder?
A: The value was 75.1%.

Q: And the “Max Killing (%), ZR-75-30” value [5]?
A: The value was 21.4%.

B2: AB0411 F3' CEACAM5 TriNKET (bispecific antibody, human IgG1, kappa)
chain: DIQLTQSPATLSVSPGERATLSCRASQSVSSSYLAWYQQKPGQAPRLLIYGASSRATGIPDRFSGSGSGTDFTLTISRLEPEDFAVYYCQQYNNWPLTFGCGTKVEIKGGGGSGGGGSGGGGSGGGGSQVQLVQSGGGLVQPGGSLRLSCAASGFTFTSYAMSWVRQAPGKCLEWVSAISGTGDSTFYADSVKGRFTFSRDNSKNTLYLQMNSLRAEDTAVYYCAKDLGWLQYGLFDYWGQGTLVTVSSGSDKTHTCPPCPAPELLGGPSVFLFPPKPKDTLMISRTPEVTCVVVDVSHEDPEVKFNWYVDGVEVHNAKTKPREEQYNSTYRVVSVLTVLHQDWLNGKEYKCKVSNKALPAPIEKTISKAKGQPREPRVYTLPPCRDELTKNQVSLTCLVKGFYPSDIAVEWESNGQPENNYKTTPPVLVSDGSFTLYSKLTVDKSRWQQGNVFSCSVMHEALHNHYTQKSLSLSPG
heavy: B1 heavy
light: B1 light
Q: Which Kd [1] does the source give for B2 here?
A: Its Kd is 1.4 nM.

Q: What about the kon [1] of the same binder?
A: The kon was 270000 M⁻¹ s⁻¹.

Q: What about the Kd [2] of the same binder?
A: The Kd was 8.2 nM.

Q: What about the kon [2] of the same binder?
A: The kon was 180000 M⁻¹ s⁻¹.

Q: What about the Kd [3] of the same binder?
A: The Kd was 1.9 nM.

Q: What about the kon [3] of the same binder?
A: Its kon is 210000 M⁻¹ s⁻¹.

Q: And the Kd [4]?
A: Its Kd is 1.7 nM.

Q: What about the kon [4] of the same binder?
A: Its kon is 270000 M⁻¹ s⁻¹.

Q: And the “EC50 (nM), NK lysis of LS-174T (DELFIA)” value [5]?
A: The value was 0.32 nM.

Q: And the “EC50 (nM), NK lysis of SK-CO-1 (DELFIA)” value [5]?
A: The value was 4.55 nM.

Q: What about the “EC50 (nM), NK lysis of ZR-75-30 (DELFIA)” value [5] of the same binder?
A: The value was 0.17 nM.

Q: And the “Max Killing (%), HPAF-II” value [5]?
A: Its value is 28.3%.

Q: What about the “Max Killing (%), LS-174T” value [5] of the same binder?
A: The value was 28.9%.

Q: What about the “Max Killing (%), SK-CO-1” value [5] of the same binder?
A: The value was 84%.

Q: What about the “Max Killing (%), ZR-75-30” value [5] of the same binder?
A: The value was 25.9%.

B3: AB0621 F3' CEACAM5 TriNKET (bispecific antibody, human IgG1, kappa)
chain: DIVMTQSPDSLAVSLGERATINCKSSHSLLYGNFQNNYLAWYQQKPGQPPKLLIYWASTRESGVPDRFSGSGSGTDFTLTISSLQAEDVAVYYCQQYYSYPYTFGCGTKLEIKGGGGSGGGGSGGGGSGGGGSQVQLVQSGAEVKKPGASVKVSCKASGYTFTAYTIHWVRQAPGQCLEWMGYINPSSGYTEYNQKFKDRTTLTADTSISTAYMELSRLRSDDTAVYYCTREGGLLWFDYWGQGTLVTVSSGSDKTHTCPPCPAPELLGGPSVFLFPPKPKDTLMISRTPEVTCVVVDVSHEDPEVKFNWYVDGVEVHNAKTKPREEQYNSTYRVVSVLTVLHQDWLNGKEYKCKVSNKALPAPIEKTISKAKGQPREPRVYTLPPCRDELTKNQVSLTCLVKGFYPSDIAVEWESNGQPENNYKTTPPVLVSDGSFTLYSKLTVDKSRWQQGNVFSCSVMHEALHNHYTQKSLSLSPG
heavy: B1 heavy
light: B1 light
Q: What does the source list for B3?
A: Kd [1]: 19 nM; kon [1]: 86000 M⁻¹ s⁻¹; Kd [2]: 34 nM; kon [2]: 44000 M⁻¹ s⁻¹; Kd [3]: 29 nM; kon [3]: 47000 M⁻¹ s⁻¹; Kd [4]: 17 nM; kon [4]: 100000 M⁻¹ s⁻¹; EC50 (nM), NK lysis of HPAF-II (DELFIA) [5]: 0.72 nM; EC50 (nM), NK lysis of LS-174T (DELFIA) [5]: 1.87 nM; EC50 (nM), NK lysis of SK-CO-1 (DELFIA) [5]: 1.02 nM; EC50 (nM), NK lysis of ZR-75-30 (DELFIA) [5]: 1.58 nM; Max Killing (%), HPAF-II [5]: 29.8%; Max Killing (%), LS-174T [5]: 42.6%; Max Killing (%), SK-CO-1 [5]: 80.9%; Max Killing (%), ZR-75-30 [5]: 29.8%
